Measured values as given in patent US20230212305A1 (published 2023).

T1: human ABCG2 (human, UniProt Q9UNQ0 1-655)
T1 sequence: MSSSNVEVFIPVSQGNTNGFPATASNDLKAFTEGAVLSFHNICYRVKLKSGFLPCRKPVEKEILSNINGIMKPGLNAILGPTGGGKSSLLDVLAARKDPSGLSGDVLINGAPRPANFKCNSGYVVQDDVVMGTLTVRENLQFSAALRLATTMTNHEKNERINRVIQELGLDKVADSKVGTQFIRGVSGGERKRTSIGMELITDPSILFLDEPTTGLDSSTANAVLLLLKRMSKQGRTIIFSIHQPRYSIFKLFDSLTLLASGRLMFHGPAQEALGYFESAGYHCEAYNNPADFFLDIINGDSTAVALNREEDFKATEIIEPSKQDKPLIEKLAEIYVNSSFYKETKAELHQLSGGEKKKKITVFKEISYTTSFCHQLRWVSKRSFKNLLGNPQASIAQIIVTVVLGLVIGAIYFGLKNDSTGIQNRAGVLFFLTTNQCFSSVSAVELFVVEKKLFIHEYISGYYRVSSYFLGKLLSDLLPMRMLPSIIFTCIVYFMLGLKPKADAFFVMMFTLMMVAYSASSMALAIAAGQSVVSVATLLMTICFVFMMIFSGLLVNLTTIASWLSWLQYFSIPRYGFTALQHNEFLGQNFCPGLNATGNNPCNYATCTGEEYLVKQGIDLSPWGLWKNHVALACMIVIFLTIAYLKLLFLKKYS

T2: cynomolgus ABCG2 (Macaca fascicularis) (Macaca fascicularis (cynomolgus), UniProt Q5MB13 1-654 (rhesus entry))
T2 construct: also called cABCG2
T2 sequence: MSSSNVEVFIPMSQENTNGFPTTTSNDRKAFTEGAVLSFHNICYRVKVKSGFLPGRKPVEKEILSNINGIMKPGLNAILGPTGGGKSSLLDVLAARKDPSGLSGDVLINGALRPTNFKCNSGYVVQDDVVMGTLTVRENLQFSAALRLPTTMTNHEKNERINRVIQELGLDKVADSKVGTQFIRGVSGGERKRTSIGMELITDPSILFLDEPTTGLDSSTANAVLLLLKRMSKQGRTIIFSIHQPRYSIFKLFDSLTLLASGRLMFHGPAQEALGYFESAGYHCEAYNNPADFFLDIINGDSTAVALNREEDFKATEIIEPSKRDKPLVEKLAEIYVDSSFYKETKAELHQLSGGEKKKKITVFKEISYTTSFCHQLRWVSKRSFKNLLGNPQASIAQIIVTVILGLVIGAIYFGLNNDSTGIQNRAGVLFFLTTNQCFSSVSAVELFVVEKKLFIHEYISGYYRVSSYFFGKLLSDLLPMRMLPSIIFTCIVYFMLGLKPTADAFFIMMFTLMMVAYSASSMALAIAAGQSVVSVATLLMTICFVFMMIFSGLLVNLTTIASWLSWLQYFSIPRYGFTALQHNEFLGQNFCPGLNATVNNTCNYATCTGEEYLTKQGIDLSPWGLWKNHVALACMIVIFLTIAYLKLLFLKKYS


How the values were obtained:
human ABCG2 [1] = target: T1, human ABCG2; assay: cell-based or functional assay
human ABCG2 [2] = target: T1, human ABCG2; assay: flow cytometry titration on 293T_ABCG2_OX cells; column Affinity for human ABCG2 (nM)
Description: (§1) Cell Binding Assays. Antibody binding to cells was evaluated by flow cytometry. […] After incubating cells on ice for 30 min, cells were washed twice with flow cytometry buffer. Bound antibody was detected with PE-labeled F(ab′)₂ fragment goat anti-human IgG (Jackson ImmunoResearch) and evaluated on an Attune NxT flow cytometer.

[3] = target: T2, cynomolgus ABCG2 (Macaca fascicularis); assay: flow cytometry on cells expressing cynomolgus ABCG2; paragraph 395: non-significant binding = -
Description: as §1

[4] = target: T2, cynomolgus ABCG2 (Macaca fascicularis); assay: flow cytometry on cells expressing cynomolgus ABCG2
Description: as §1

[5] = target: T2, cynomolgus ABCG2 (Macaca fascicularis); assay: flow cytometry, 293T cells overexpressing cynomolgus ABCG2
Description: as §1

human ABCG2 [6] = target: T1, human ABCG2; assay: flow cytometry, 293T cells overexpressing human ABCG2
Description: as §1

Kd (human ABCG2 [2]) [nM] | binding result [3] | binding result [4] | binding result [5] | binding result (human ABCG2 [6]) | Binder | IC50 of topotecan cytotoxicity in the presence of the antibody (human ABCG2 [1]) [nM]
48 | no binding | – | – | – | G2.642 rat (antibody, human IgG1, V domains shown) VH: QIQLVQSGAELVKPGASVKLSCKTSGFTFSSNYISWLRQKPRQSLEWIAWIYSGTGGTYYNQKFTGKAQLTIDTSSNTAYMQLSSLTSEDSAIYYCARHVGLRYWYFDVWGAGTSVTVSS VL: DIVLTQSPASLTVSLGQRATISCRASESVDSNGNSFMHWYQQKPGQSPKVLIYRASNLESGVPARFSGSGSRTDFTLTINPVEADDVATYYCQQSNEDPWTFGGGTKLEIKR | 9.08
16.8 | – | binds | – | – | G2.629 rat (antibody, human IgG1, V domains shown, Variable regions cloned onto human IgG1 constant heavy chain and human kappa constant light chain) VH: EVQLVESGGGLVQPGRSLKLSCAASGFIFSRFYMAWVRQAPTKGLEWVAYINTGGGTTYYRDSVKGRFTISRDNAKTTLYLQMDSLRSEDTATYYCTTLAAPWNYVMDAWGQGASVTVSS VL: DVVMTQSPSLLSASVGDRVTLTCKGSQNINNFLAWYQQKLGEAPKLLTYKTNSLHTGIPSRFSGSGSGTDYTLTISSLHSEDLATYYCYQYNNGYTFGPGTKLELK | 2.21
14.2 | – | – | – | – | G2.631 rat (antibody, human IgG1, V domains shown, also called G.631) VH: EVKLLESGGGLVQSGRSLKLSCAASGFIFSRFYMAWVRQAPRKGLEWVAYISNGAGSTYYRESVKGRFIISRDNAKSTLYLQMDSLRSEDTATYYCTTVAAPWNYVMDGWGQGASVTVSS VL: NIQITQSPSLLSASVGDRVTLSCKGSQNINNYLAWYQQKLGEAPKLLIYKTNSLHTGIPSRFSGSGSGTDYTLTISSLHSEDLATYYCYQYNNGYTFGAGTKLELK | 1.42
17 | – | binds | – | – | G2.636 rat (antibody, human IgG1, V domains shown, Variable regions cloned onto human IgG1 constant heavy chain and human kappa constant light chain) VH: EVKLVESGGGLVQPGRSLKLSCAASGFTFSRFYMAWVRQAPTKGLEWVAHISHGGDTTYYRDSVKGRFTISRDNAKSTLFLQMDSLRSEDTATYYCTTSAAPWNYVMDGWGLGASVTVSS VL: DIVMTQSPSLLSASVGDRVTLTCKGSQNINNFLAWYQQKLGEAPKLLIYKTNSLHTGIPSRFSGSGSGTDYTLTISSLHSEDLATYYCYQYNNGYTFGAGTKLELK | 0.45
23 | – | binds | – | – | G2.641 rat (antibody, human IgG1, V domains shown, Variable regions cloned onto human IgG1 constant heavy chain and human kappa constant light chain) VH: EVKLEESGGGLVQPGRSLKLSCAASGFTFSRFYMAWVRQAPTKGLEWVAHISHGGDTTYYRDSVKGRFTISRDNAKSTLFLQMDSLRSEDTATYYCTTSAAPWNYVMDGWGLGASVTVSS VL: DIQMTQSPSLLSASVGDRVTLTCKGSQNINNFLAWYQQKLGEAPKLLIYKTNSLHTGIPSRFSGSGSGTDYTLTISSLHSEDLATYYCYQYNNGYTFGAGTKLELK | 1.04
– | – | – | no binding | no binding | G2.640 (antibody, human IgG1, V domains shown, Raised in rats) VH: EVKLEESGPGLVQPSQTLSLTCTVSGFSLTSDGVSWVRQPPGKGLEWIAAISSGGSTYYNSALKSRLSISRDTSKSQVFLKMNSLQTEDTAIYFCTRDTYYGYNQIPFVYWGQGTLVTVSS VL: DIVIIQSPPSLSASLGDKVTISCQASQNIHRYIAWYQQKPGKAPRLLIRYTSTLESGTPSRFSGSGSGRDYSFSISNVESEDIASYYCLQYVNLWTFGGGTKLELK | 6.9
363 | no binding | – | – | – | G2.255 mouse (antibody, human IgG1, V domains shown, Variable regions cloned onto human IgG1 constant heavy chain and human kappa constant light chain) VH: EVMLVESGGALVKPGGSLKLSCAASGFTFSNNAMSWVRQTPETRLEWVATITGGGSYTYYPDSVKGRFTISRDNARNTLYLQMSSLRSEDTATYYCASPDGNYEGVLAYWGQGTLVTVSA VL: DIQMNQSPSSLSASLGDRVTISCSASQGISNYLNWYQQKPDGTIKLLIYYTSTLHSGVPSRFSGSGSGTDYSLTISNLEPEDIATYYCQHYSSLPWTFGGGTKLEIK | –
– | – | – | binds | binds | G2.760 rat (antibody, human IgG1, V domains shown) VH: EVQLVESGGGLVQPGRSMKLSCAASGFTFSKSDMAWVRQAPTKGLKWVASIRYDGGNTYYRDSVRGRFTISRDNAKSTLYLQMDSLRSEDTATYYCSTAKAAISTPSYYVLDAWGQGASVTVSS VL: DIGMTQSPTSMSKSVGDRVTMNCKASQNVGSNVDWFQQKTGQSPKLLIYKSSNRYTGVPARFTGSGSGTDFTFTISNMQAEDLAVYYCMQSNSYPPTFGGGTKLELK | –
– | – | – | binds | binds | G2.748 rat (antibody, V domains shown) VH: QVSLKESGPGMLQPSKTLSLTCSFSGFSLSTSGMVVNWIRQPSGKSLEWLAAIDWDGDKYYNPSLKHRLTVSKDTSNTQVVLKITSVDTADTATYYCARSIAPYRGWFGYWGQGTLVTVSS VL: EIVLIQSPSSLPASLGERVTIICRASQDIGNNLNWYQQKPDGTIKPLIYFTSNFQSGVPSSFSGSRSGTDFSLTISSLEAEDFAMYYCQQDASLPWTFGGGTKLEIK | –
– | – | – | binds | binds | G2.643 mouse (antibody, human IgG1, V domains shown, Recombinant antibody) VH: VNLVESGPELVKPGTSVKISCKASGYRFTSYYVHWVKQRPGQGLEWIGWIFPGSDNTKYNEKFKGKATLTADTSSSTAYMQLSSLTSEDSAVYFCASIYYGYDGTLYFDYWGQGTSVTVSS VL: DIVMTQSHTFMSTSVGDRVSVTCKASQNVGNNVAWYQQKPGQSPNALIYSASYRYSGVPDRFTGSGSGTDFTLTISNVQSEDLAEYFCQQYDRYPLTFGGGTKLEIK | –
59 | no binding | – | – | – | G2.247 mouse (antibody, human IgG1, V domains shown, Variable regions cloned onto human IgG1 constant heavy chain and human kappa constant light chain) VH: EVRLQQSGAELVKPGASVKLSCKTSGFTFSNSYISWLKQKPRQSLEWIAWIYAGTGGTNYNQKFTGKAQLTVDTSSSTAYMQLSSLTSEDSAIYYCATYGNFLYAMDNWGQGTSVTVSS VL: DIVMTQSPASLSASVGETVTITCRASGNIHNYLAWYQQKQGKSPQLLVYNTKTLADGVPSRFSGSGSGTQYSLKINSLQPEDFGSYYCQHFWSTPWTFGGGTKLEIK | –
347 | no binding | – | – | – | G2.252 mouse (antibody, human IgG1, V domains shown, Variable regions cloned onto human IgG1 constant heavy chain and human kappa constant light chain) VH: EVQLQQSGAELVKPGASVKLSCKTSGFTFSNSYISWLKQKPRQSLEWIAWIYAGTGGTNYNQKFTGKAQLTVDTSSSTAYMQLSSLTSEDSAIYYCATYGNFLYAMDYWGQGTTLTVSS VL: EIVLTQSPASLSASVGETVTITCRASGNIHNYLAWYQQKQGKSPQLLVYNAKTLADGVPSRFSGSGSGTQYSLKINSLQPEDFGSYYCQHFWSTPWTFGGGTKLEIK | –
125 | no binding | – | – | – | G2.248 mouse (antibody, human IgG1, V domains shown, Variable regions cloned onto human IgG1 constant heavy chain and human kappa constant light chain) VH: QVQLQQPGAELVKPGASVKLSCKTSGFTFSNSYISWLKQKPRQSLEWIAWIYAGTGGTNYNQKFTGKAQLTVDTSSSTAYMQLSSLTSEDSAIYYCATYGNFLYAMDNWGQGTSVTVSS VL: DIQMKQSPASLSASVGETVTITCRASGNIHNYLAWYQQKQGKSPQLLVYNTKTLADGVPSRFSGSGSGTQYSLKINSLQPEDFGSYYCQHFWSTPWTFGGGTKLEIK | –
5 | – | – | – | – | anti-ABCG2 antibody 5D3 (antibody, V domains shown, also called clone 5D3) VH: QVQLQESGPGLVKPSQSLSLTCTVTGFSITSDYAWNWIRQFPGKKLEWMGYINFDGGTTYNPSLRGRISITRDTSKNQFFLQLRSVTPEDTATYYCATFYGAKGTLDYWGQGTSVTVSS VL: DIVLTQSPSSFSVSLGDRVTISCKASGYILNRLAWYQQKPGNAPRLLISGATSLETGFPSRFSGTGSGKDYTLSISSLQTEDVGTYYCQQYWSTPWTFGGGTKLEIK | 0.3
